From US20220098328A1, “ANTIBODIES TO M(H)DM2/4 AND THEIR USE IN DIAGNOSING AND TREATING CANCER” (NomoCan Pharmaceuticals LLC, priority 2017, published 2022) come the findings set out here.

The subject of data set [1] is human pancreatic cancer MIAPaCa-2 cells. The experiment in a line: Complement-dependent cytotoxicity with normal human serum (PI staining). In kind it is cell-based. The following applies: antibody 30 μg/ml, NHS 1:10, 2 hours. On the procedure:
Methodology used: Cells seeded in 24-well dishes were grown overnight at 37° C. in a humidified atmosphere supplied with 5% CO2-95% air mixture. The following day the cells were thoroughly washed with ice-cold PBS and incubated with HDM2-specific mAb NMC-103 diluted in culture medium containing 1% BSA to a final antibody concentration of 30 μg/ml. After 30 min, NHS was added to the cells at a final concentration of 1:10 in the culture medium with 1% BSA together with 1% propidium iodide (PI) solution. Cells were then incubated with NHS for 2 hours and images were taken using EVOS FL fluorescent microscope (Life Technologies).
Methodology used: Cells seeded in 24-well dishes were grown over night at 37° C. in a humidified atmosphere supplied with 5% CO2-95% air mixture. The following day the cells were thoroughly washed with ice-cold PBS and incubated with various HDM2-specific antibodies (i.e., OP145, N-20 and C-18 antibodies; see description of the antibodies in Table 10) or control antibodies (directed to the intra-cellular protein Cytochrome C) diluted in culture medium containing 1% BSA to a final antibody concentration of 5-10 ug/ml. After 30 min, NHS was added to the cells to make a final concentration of at 1:30 in the culture medium with 1% BSA together with 1% propidium iodide (PI) solution. […]

Data set [2] concerns the target NMC-P3 peptide (SEQ ID NO:3), amino acids 475-491 of HDM2 (Homo sapiens, UniProt Q00987). The experiment in a line: Peptide-ELISA. Particulars: 5 μg/ml peptide on plate, OD 450 nm. In kind it is binding. On the procedure:
Peptide-ELISA Methodology: 5 μg/ml of NMC-P1, NMC-P2 or NMC-P3 peptide antigen was dried onto a 96-well ELISA plate overnight. Plates were then blocked with 5% BSA in 1× phosphate-buffered saline (PBS) (100 μl/well) for 2 hours at room temperature. Microplate wells were then washed 5 times with 300 μl of ice cold 1×PBS. Appropriate dilutions of monoclonal antibodies NMC-103, NMC-204 or NMC-303 in 1% bovine serum albumin (BSA) in PBS solution were then incubated with their corresponding peptides (NMC-P1, NMC-P2 or NMC-P3, respectively) at room temperature. After 2 hours, wells were washed 5 times with 300 μl ice-cold PBS/well and 100 μl secondary antibody (HRP-labeled Goat anti-Mouse F(ab′)2 H&L cross-adsorbed secondary antibody (HRP-GaM F(ab′)2), ThermoFisher, Cat. No. A24524) diluted 1:2500 to 1:5000 in PBS-1% BSA solution were added and the incubation continued at room temperature. After 1 hour, the wells were washed again 5 times with 200 μl of ice-cold PBS and 50 μL of the TMB Substrate Solution (1-Step™ Ultra TMB-ELISA, ThermoFisher, Cat. No. 34028) were added to each well and color was allowed to develop for 30 minutes at room temperature. The reaction was stopped by addition of 50 μL of stop solution (ThermoFisher, Cat. No. SS04) to each well and absorbance of each well was read immediately for optical density (OD) at 450 nm.

B1: NMC-103: mouse monoclonal antibody of the IgG1 isotype that binds to NMC-P1 (SEQ ID NO:1); VH SEQ ID NO:36, VL SEQ ID NO:37 (antibody, V domains shown)
VH: EVQLQESGGGLVQPGGSLRLSCTTSGFTFTHYYMSWVRQPPGKALEWLGFIRNKAKGYTAEYSASVKGRFTISRDNSQSILYLQMNTLRPEDSATYYCARDIGDNWGQGTLVTVSS
VL: DIVMTQAAFSNPVTLGTSASISCRSSKNLLHSNGITYLYWYLQRPGQSPQLLISRVSNLASGVPNRFSGSESGTDFTLRISRVEAEDVGVYFCAQLLELPYTFGGGTKLEIK
modifications: mAb NMC-103 Heavy Chain Variable Region; mAb NMC-103 Light Chain Variable Region
B1: the “complement-mediated cytotoxicity (PI uptake)” value in data set [1] was “triggered complement-mediated cytotoxicity”.

B2: NMC-204: mouse monoclonal antibody of the IgG3 isotype that binds to NMC-P2 (SEQ ID NO:2); VH SEQ ID NO:38, VL SEQ ID NO:39 (antibody, V domains shown)
VH: EVQLQESGSVLVRPGASVKLSCKASGDTLSGSWMHWAMQRPGQGLEWIGEIHLNRGTTNYNEKFKGKATVTVDTSSSTAYVDLSSLTSEDSAVYYCARSPGFAYWGQGTLVTVSA
VL: GIVMTQAAPSVPVTPGESVSISCRSSKSLLHSNGNSYLYWFLQRPGQSPQLLIYRMSNLASGVPDRFSGSGSGTAFTLRITRVEAEDVGVYYCMQHLEYPFTFGSGTKLEIK
modifications: mAb NMC-204 Heavy Chain Variable Region; mAb NMC-204 Light Chain Variable Region
Turning to B2, in data set [2], the “binding to NMC-P3 peptide” value is given as “did not bind”.
